The results in this text go back to article PMC11760809.

In one assay the target is CXCR4-Rluc3 (human) (UniProt P61073).
The target of assay [1] is SNAP-ACKR3 (human) (UniProt P25106).
For assay [2], the target named is ACKR3-Rluc3 (human) (UniProt P25106).
Assay [3] shares this target. This is another data set of the same source.
The target of assay [4] is SNAP-ACKR3 (human) (UniProt P25106). This is another data set of the same source.

Sequence of UniProt P61073 (P61073 whole entry): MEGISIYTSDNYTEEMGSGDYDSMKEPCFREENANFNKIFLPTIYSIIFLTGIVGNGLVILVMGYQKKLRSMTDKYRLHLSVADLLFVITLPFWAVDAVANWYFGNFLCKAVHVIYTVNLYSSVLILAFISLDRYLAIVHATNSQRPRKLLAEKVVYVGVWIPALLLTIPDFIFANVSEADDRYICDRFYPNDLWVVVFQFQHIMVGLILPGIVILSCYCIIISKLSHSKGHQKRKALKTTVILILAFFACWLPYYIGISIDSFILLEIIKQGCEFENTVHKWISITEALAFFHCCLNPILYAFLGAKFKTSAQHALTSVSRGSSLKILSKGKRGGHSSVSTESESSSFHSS

B1: 3xHA-RAMP3 (natural protein)
chain: RAGGCNETGMLERLPLCGKAFADMMGKVDVWKWCNLSEFIVYYESFTNCTEMEANVVGCYWPNPLAQGFITGIHRQFFSNCTVDRVHLEDPPDEVLIPLIVIPVVLTVAMAGLVVWRSKRTDTLL
B1 came in with a reduction of the efficacy (Emax) of CXCL12-induced β-arrestin recruitment to CXCR4 by RAMP3 (BRET) with CXCR4-Rluc3 (human) of 18.5%. The molecule also displayed an ACKR3 remaining at the surface after CXCL12-induced internalization when HA-RAMP3 was present (∼53% without it; SNAP surface labelling) in the assay with SNAP-ACKR3 (human) [1] of 65%. In the assay with ACKR3-Rluc3 (human) [2], this molecule displayed a decrease of the efficacy of CXCL11-induced β-arrestin recruitment to ACKR3 with HA-RAMP3 (BRET) of 47%, a decrease of the efficacy of TC14012-induced β-arrestin recruitment to ACKR3 with HA-RAMP3 (BRET) of 39% and a decrease of the efficacy of VUF11207-induced β-arrestin recruitment to ACKR3 with HA-RAMP3 (BRET) of 30%. Also, the decrease of the CXCL12-induced Emax of β-arrestin recruitment to ACKR3 on co-expression with RAMP3 (BRET) with ACKR3-Rluc3 (human) [3] is 40%. Moreover, in the assay with SNAP-ACKR3 (human) [4], the attenuation of the purely ligand-induced (CXCL12) internalization of ACKR3 by RAMP3 (DERET) came to 50% and the reduction of total ACKR3 internalization in response to CXCL12 (100 nM) on co-expression of HA-RAMP3, compared to ACKR3 alone (DERET, AUC 90 min) came out at 25%.
